From the supplement of paper PMC10724198
± gives the standard deviation of the averaged measurements.

These sequences were tested on Saccharomyces cerevisiae (assay: protein stability index of tFT-peptide fusion (C-terminal peptide) (PSI (0-1 scale)); higher = more stable (slower turnover)). Details: genetic background: wild type; temperature: 30 C.
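Note: PSI is a weighted mean of sequencing reads over stability bins, variants kept only with over 10 reads, mCherry proximal and sfGFP distal, peptide attached via GGGS linker.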

Row | Sequence | protein stability index
1 | NEGRRNSRRHGG | 0.683 ± 0.028
2 | VQASFLPGGSVR | 0.7062 ± 0.0039
3 | SARLTPDLPAPS | 0.642 ± 0.017
4 | SRPRPSPSPFIA | 0.708 ± 0.045
5 | KRRNKEHNKIRD | 0.652 ± 0.052
6 | IAKKNKTSKNRK | 0.703 ± 0.025
7 | PGLSLPLPPPRP | 0.703 ± 0.035
8 | GGCRQKPRGGAD | 0.666 ± 0.09
9 | TKRRKKIPENRI | 0.6649 ± 0.0049
10 | PPPVPPRFAVRP | 0.6678 ± 0.0015
11 | RFSMVVVERYSC | 0.577 ± 0.0062
12 | LSILSIHAHRAN | 0.665 ± 0.099
13 | REKQRYEERLRE | 0.636 ± 0.018
14 | LKSSREKRDMIG | 0.578 ± 0.019
15 | PLQFLPPLPCVS | 0.539 ± 0.039
16 | IGCEVLQCRCVD | 0.672 ± 0.014
17 | SPPLTLPPYPPP | 0.7149 ± 0.0031
18 | KNKKKNKNNKKK | 0.7048 ± 0.00079
19 | TGNSPSRTGNGI | 0.647 ± 0.018
20 | GCQLLSEVSVCL | 0.667 ± 0.0079
21 | FPPLRSLPPTPP | 0.793 ± 0.12
22 | IFHLFPFDNPYD | 0.8 ± 0.048
23 | GPTPSVKGDRDT | 0.632 ± 0.044
24 | SPALSPCLRTGY | 0.717 ± 0.062
25 | VFVFRLYFCGCC | 0.495 ± 0.015
26 | EKGSKTGNKPQT | 0.688 ± 0.048

Row | Sequence | protein stability index
27 | RGHTTYCGPALI | 0.697 ± 0.08
28 | GGDVHGEGNVCG | 0.698 ± 0.027
29 | PPTPPRLHRSPP | 0.69 ± 0.11
30 | RLWPPGGEFRLV | 0.719 ± 0.078
31 | VRWGVGVGVGWD | 0.682 ± 0.057
32 | IRAKKLNKSNNK | 0.7028 ± 0.0053
33 | LPPLAPSSPPRP | 0.696 ± 0.033
34 | YGPDQIGPRPGL | 0.69 ± 0.041
35 | LRSCLARGLFFG | 0.7426 ± 0.0066
36 | ELWCLGVLGGDV | 0.708 ± 0.0089
37 | AAPKSGARASLW | 0.728 ± 0.084
38 | QIQRSGGGGHCG | 0.739 ± 0.0028
39 | TYSILLRVNCFK | 0.601 ± 0.004
40 | EFLGTVRSVWRK | 0.669 ± 0.086
41 | KKNIKKKTKQKE | 0.696 ± 0.007
42 | LYPPVYRPVLSL | 0.6626 ± 0.0029
43 | IQLPPPYATPPS | 0.645 ± 0.012
44 | FSLTPSDPFPPA | 0.681 ± 0.043
45 | PLPSPPPSATSL | 0.602 ± 0.045
46 | WVCLGWGVPRSG | 0.835 ± 0.031
47 | KLSSQAWMISEK | 0.695 ± 0.055
48 | ASAGTVYLTLLP | 0.697 ± 0.072
49 | PPFPARPRPHPV | 0.6623 ± 0.0056
50 | KIKESIKIKKKR | 0.6789 ± 0.0027
51 | NQNKENKEIDRK | 0.64 ± 0.097
52 | PCLSRFPGSPFL | 0.6896 ± 0.0042

Row | Sequence | protein stability index
53 | LAPALPPQPPSH | 0.658 ± 0.023
54 | VFCGCGGCVSLG | 0.655 ± 0.014
55 | VCIGVGGGVLGL | 0.6746 ± 0.0036
56 | VSRPRSLLVPNF | 0.67 ± 0.07
57 | SHVLPHPGLSPP | 0.655 ± 0.061
58 | GVQFSVWCGSVG | 0.7 ± 0.04
59 | SSYYTGVVTACL | 0.659 ± 0.052
60 | GCGARSVQSLGD | 0.707 ± 0.039
61 | QKKKKKKVQKKQ | 0.6702 ± 0.0054
62 | WHIEGFGQYYSL | 0.736 ± 0.019
63 | TAPPPSQTPPRT | 0.684 ± 0.0076
64 | RLYCSWEFTFVQ | 0.617 ± 0.019
65 | PQYLPLLPSPSP | 0.632 ± 0.048
66 | HTPTLPLHPPRY | 0.642 ± 0.037
67 | ARAEDLLVFLPL | 0.691 ± 0.039
68 | HVLRMFTGFLFC | 0.624 ± 0.044
69 | RYGHSVLQSGIS | 0.73 ± 0.042
70 | CFVSFFWRCFFG | 0.515 ± 0.045
71 | PLPAPPLPPRSP | 0.703 ± 0.012
72 | DSWGPGVSSRRW | 0.732 ± 0.044
73 | VPAYLVAARQYY | 0.655 ± 0.012
74 | LYSSPSLQSPNP | 0.613 ± 0.021
75 | GCRRGGGMERAQ | 0.649 ± 0.05
76 | PCHPRPPPASPP | 0.692 ± 0.096
77 | LADFMFCALPLC | 0.658 ± 0.045
78 | FRTLVEAGSLMD | 0.6995 ± 0.00077

Row | Sequence | protein stability index
79 | NHRETNRNRGKL | 0.75295 ± 0.00072
80 | WAGGGFVVGCVG | 0.629 ± 0.062
81 | PPRPPRPPPRTP | 0.694 ± 0.022
82 | MAVVSDDRDINC | 0.681 ± 0.056
83 | PRFGPPQLPAKA | 0.754 ± 0.062
84 | LLALSPLSSYAL | 0.711 ± 0.084
85 | PPHRRTPQRRCP | 0.701 ± 0.013
86 | RIVASTLKSYLT | 0.68835 ± 0.00068
87 | RKKTKKEKSEEI | 0.694 ± 0.031
88 | GGSGAGRRGGGR | 0.72 ± 0.03
89 | PASPPPRTISSP | 0.704 ± 0.064
90 | SARLCPPRGGFR | 0.748 ± 0.018
91 | GKAGGNREGTGT | 0.689 ± 0.048
92 | VSTVFGCDICST | 0.701 ± 0.034
93 | PLPLHLATPHLF | 0.694 ± 0.05
94 | HISSFPSPPPPV | 0.711 ± 0.054
95 | KLVGFRPHAWWF | 0.701 ± 0.016
96 | WKKSIKKDTREM | 0.721 ± 0.012
97 | GGGKRSERGGEP | 0.672 ± 0.12
98 | TGEVSTRVGQRE | 0.66 ± 0.07
99 | KKKKKKKMTNLK | 0.809 ± 0.054
100 | LTVGPCQPAGEA | 0.776 ± 0.065
101 | NVEARLARVHWM | 0.73 ± 0.12
